Measurements from paper PMC11892609.

B1: WT mTMIE-HA-Avi [mouse] / Fyn-mTMC2-mCherry [mouse] (parent)
chain 1: QLVEPSTAPPKPKPPPLTKETVVFWDMRLWHVVGIFSLFVLSIIITLCCVFNCRVPRTRKEIEARYLQRKAAKMYTDKLETVPPLNELTEIPGEDKKKKKKDSVDTVAIKVEEDEKNEAKKKGEK
chain 2: MSPQLKSLDEEGDKSARRPTRKQTSRAACPQDGHRAQSSRKDPAKGSPRPGSSRKKQMEHGSYHKGLQGQKPRKVERSLQGRKKDRRTSLKEQRASPKKEREALRKEAGKQLRKPRSTSLGSSVSTGDSLSEEELAQILEQVEEKKKLITTVRNKPWPMAKKLRELREAQAFVEKYEGALGKGKGKHLYAYRMMMAKKWVKFKRDFDNFKTQCIPWEMKIKDIESHFGSSVASYFIFLRWMYGVNLVLFGLIFGLVIIPEVLMGMPYGSIPRKTVPRAEEERAMDFSVLWDFEGYIKYSALFYGYYNNQRTIGWLRYRLPMAYFMVGVSVFGYSLMIVIRSMASNTQGSTSEGDSDSFTFSFKMFTSWDYLIGNSETADNKYVSITTSFKESIVDEQESNKEGNIHLTRFLRVLANFLILCCLCGSGYLIYFVVKRSQEFSKMQNVSWYERNEVEIVMSLLGMFCPPLFETIAALENYHPRTGLKWQLGRIFALFLGNLYTFLLALMDDVHLKLSNEEKIKNITHWTLFNYYNSSGGNESVPRPPPHPADVPRGSCWETAVGIEFMRLTVSDMLVTYLTILVGDFLRACFVRFMNHCWCWDLEAGFPSYAEFDISGNVLGLIFNQGMIWMGSFYAPGLVGINVLRLLTSMYFQCWAVMSSNVPHERVFKASRSNNFYMGLLLLVLFLSLLPVAYTVMSLPPSFDCGPFSGKNRMYDVLHETIENDFPKFLGKIFAFLANPGLIIPAILLMFLAIYYLNSVSKSLSRANAQLRKKIQALREVEKNHKSIKGKAIVTYSEDTIKNSSKNATQIHLTKEEPTSHSSSQIQTLDKKAQGPHTSSTEGGASPSTSWHHVGSQPPRGRRDSGQPQSQTYTGRSPSGKRTQRPHN

Variants of: B1
Assay: pull-down with NeutrAvidin beads, western blot quantification
Conditions: PK-HEK293T cells co-expressing Fyn-mTMC2-mCherry and mTMIE-HA-Avi, three experiments, parent: 1, read off a plot

| Variant | ratio to parent |
| --- | --- |
| chain 1 QLVEPSTAPPKPKPPPLTKETVVFWDMRLWHVVGIFSLFVLSIIITLSSVFNCRVPRTRKEIEARYLQRKAAKMYTDKLETVPPLNELTEIPGEDKKKKKKDSVDTVAIKVEEDEKNEAKKKGEK [chain 1 C48S C49S] | 1.7 |
